Measured values as given in patent US20160296648A1.

Key:
CD22 (human) [1] = target: CD22 (human) (UniProt P20273); test: flow cytometry on bone marrow blasts at inclusion
CD22 (human) [2] = target: CD22 (human) (UniProt P20273); test: flow cytometry on residual blasts of three non-responders after RAIT (epratuzumab on the cells)
CD22 (human) [3] = target: CD22 (human) (UniProt P20273); test: flow cytometry, normal BM B cells at day 180 post-RAIT (FIG. 1B), epratuzumab gone from the surface
CD22 (human) [4] = target: CD22 (human) (UniProt P20273); test: flow cytometry, normal BM B cells at day 90 post-RAIT (FIG. 1B)
CD22 (human) [5] = target: CD22 (human) (UniProt P20273); test: flow cytometry, BM blasts at day 15 post-RAIT (FIG. 1A)
CD22 (human) [6] = target: CD22 (human) (UniProt P20273); test: flow cytometry on BM blasts of a patient who had received epratuzumab (epratuzumab on the cells)
CD22 (human) [7] = target: CD22 (human) (UniProt P20273); test: flow cytometry on blasts after elimination of epratuzumab from the surface
CD22 (human) [8] = target: CD22 (human) (UniProt P20273); test: flow cytometry on peripheral blood blasts at inclusion
CD22 (human) [9] = target: CD22 (human) (UniProt P20273); test: flow cytometry on residual blasts of four non-responders after RAIT
CD22 (human) [10] = target: CD22 (human) (UniProt P20273); test: flow cytometry on residual blasts of one non-responder after RAIT

SHCL-1 (anti-CD22 antibody clone, PE or PerCp-Cy5.5 conjugated, BD Biosciences)
median % of CD22-SHCL-1 expression (bone marrow blasts) (CD22 (human) [1]): 100% | % positivity of residual blasts (CD22 (human) [2]): 100% | % positive (normal BM B cells) (CD22 (human) [3]): 100% | % CD22 SHCL-1 expression (normal BM B cells) (CD22 (human) [4]): 100% | % CD22 SHCL-1 blast expression (CD22 (human) [5]): 100% | % of SHCL-1+ blasts (CD22 (human) [6]): 100% | % labeling of blasts (CD22 (human) [7]): 100% | median % of CD22-SHCL-1 expression (peripheral blasts) (CD22 (human) [8]): 100% | % positivity of residual blasts (CD22 (human) [9]): 100% | % positivity of residual blasts (CD22 (human) [10]): 84%
